Laboratory results: patent US10654918B2, “Inflammatory disease diagnosis and methods of treatment using down-regulators of lipopolysaccharide-responsive beige-like anchor” (University of South Florida, priority 2013, dated 2020)

What was measured:
Assay type in all cases: cell-based, human
[1] = system: MAPKs [p42/44, p38 and Jun N-terminal kinase (JNK)]; assay: MAPK Western blot in Raji and Raji9 cells; conditions: LRBA KD Raji cells, LPS
Description: FIGS. 47(A) and (B). Knockdown of LRBA deregulates MAPKs. Knockdown of LRBA upregulates p38 and JNK but downregulates p42/44. Half million of Raji or Raji9 cells were put in a well in a 6 well plate. After 24 hr, cells were treated with or without LPS for the time as indicated. 200 μl RIPA buffer with protease inhibitors and PMSF. (A) Western blot of cells was performed. 30 μl of cell extracts were loaded to ach well. Phosphorylated protein levels were normalized to β-Actin shown as the numbers between the two blots. (B) curves based on the Western blots. Quantity One software was used to quantify the levels.
Like NF-κB, the mitogen-activated protein kinases (MAPKs) act as funnels to collect many stress-activated signals but function as bottle necks to filter and process these signals, and then have many diverse targets(26). Specifically, MAPKs are critical downstream hubs of the TLR4/LPS signal transduction(27) and may be affected by LRBA deficiency. The expression and activation of the three major MAPKs [p42/44, p38 and Jun N-terminal kinase (JNK)] were examined in Raji cells. […] The phospho-p42/44 measured by flow cytometry intracellular staining also is decreased (data not shown). […] The Drosophila MAPK and JNK have 82% and 78% identities with their human orthologues, respectively.

[2] = system: NFκB; assay: NFκB luciferase activity in A549 clones with LRBA shRNA knockdown; conditions: A549 clones with different knockdown levels, LPS 10 μg/ml; dose-dependent
From the text: FIG. 45A-D. Knockdown of LRBA deregulates NFκB. (A) Knockdown of LRBA increases NFκB luciferase activity. An NFκB luciferase reporter was used to measure the NFκB transcription activity. The data are shown as scatter with bar graph of mean with standard error of mean (SEM). (B) Knockdown of LRBA increases phospho-NFκB. The Phosflow kit including Cytofix Fixation Buffer, Phosflow Perm Buffer III and Stain Buffer (BD) and phospho-antibodies, NFκB p65 (pS529) PE-Cy7 were used for the intracellular staining following the company's instruction. For each samples, 50,000 cells were recorded for the FACS assay. (C) A549 cells were stably transfected with LRBA shRNA knockdown plasmid and several clones were picked up. Half million of cells were seeded in a well of a 24 well plate and incubated overnight, then stimulated with LPS (10 μg/ml) for certain time. Luciferase assay Biotium. NFκB luciferase activity is inversely dose-dependent on the LRBA levels in A549 cells with different levels of LRBA knockdown judged by the GFP levels of the cells stably transfected with the LRBA shRNA/GFP construct. (D) LRBA KD#3, LRBA KD#4 and LRBA KD#5 clones express different levels of GFP expression from low to high. The GFP expression levels can be an indicator of shRNA expression levels and are inversely related to the levels of LRBA. […]

[3] = system: Raji B cells; assay: Viable cell count of Raji B cells and Rajisi9 B cells; conditions: 10 cells per well, 11 days
Description: FIG. 20 is a graph showing knockdown of LRBA promotes B cell proliferations. Raji B cells and Rajisi9 B cells (Raji B cells stably transfected with shRNA plasmid against LRBA) were culture on a 96 well plate with 10 cells per well for 11 days. Viable cells were counted by the Trypan blue live/dead discrimination method with a Hemocytometer.
Raji B cells and Rajisi9 B cells (Raji B cells stably transfected with shRNA plasmid against LRBA) were cultured in a 96 well plate with 10 cells per well for 9 days. Blockage of LRBA promotes THP1 cell proliferation. THP1 cells (human acute monocytic leukemia cell line) were cultured in 100 μl of RPMI1640 media with or without human LRBA polyclonal IgG antibody at 0.67 μg/ml or the same amount of human actin polyclonal IgG antibody on a 96 well plate with 10 cells per well for 9 days. Viable cells were counted by the trypan blue live/dead discrimination method with a hemocytometer.

[4] = system: Raji and Raji9 cells; assay: Annexin V apoptosis assay after infection with adenoviruses or Gram-negative bacteria; conditions: 24 hrs after infection with adenoviruses or Gram-negative bacteria
Description: FIGS. 49(A) through (B) are graphs showing cells with LRBA knockdown cannot fight viral and bacterial infections efficiently. Half million of Raji and Raji9 cells were infected with adenoviruses at 100 multiplicity of infection (MOI) or 50 μl of Gram-negative bacteria from overnight culture. After 24 hours of incubation at 37° C., Apoptosis was detected by Annexin V-PE and 7-AAD. Cells that were double negative (left lower quadrant) were viable, Annexin only positive cells (right lower quadrant) were early phase of apoptosis or other cell death, and double positive cells (right upper quadrant) were end stage apoptosis or dead. ****p<9E-05, *p<0.007.
In order for pathogens to efficiently spread to neighboring cells and evade the immune cells, and/or gain nutrients, one prominent strategy of many bacterial pathogens is to cause host cell death (31). On another hand, the host cell, first will try to kill the evaded pathogens. As such, cell death may be used as a hallmark of immunodeficiency. […] It is hypothesized that Raji cells with LRBA knockdown can serve as an immunodeficiency in vitro model, i.e. they cannot fight pathogens efficiently when compared to wild type cells, manifested as more cell death.

B1: LRBA shRNA: shRNA plasmid against LRBA; targeted LRBA sequence SEQ ID No. 15 GGGATATTGTAGAAACTGTCTTT (nucleic acid)
sense: GGGATATTGTAGAAACTGTCTTTTTCAAGAGAAAAGACAGTTTCTACAATATCCCTTTTTT
antisense: CCCTATAACATCTTTGACAGAAAAAGTTCTCTTTTCTGTCAAAGATGTTATAGGGAAAAAA
- JNK kinase activity [1]: increased
- p38 kinase activity [1]: increased
- p42/44 kinase activity [1]: reduced
- NFκB luciferase activity [2]: increases
- B cell proliferations (viable cells, Trypan blue) [3]: promotes
- dead cells or apoptotic cells (Annexin V-PE, 7-AAD) [4]: more dead cells or apoptotic cells
